Reference: article PMC4754659, “Differential regulation of taurine biosynthesis in rainbow trout and Japanese flounder” (Scientific Reports, 2016)
Where a chain is given by its changes, count along the chain named. Names may count otherwise.

Key:
[1] = substrate: N[C@@H](CS(=O)O)C(=O)O; test: HPLC of hypotaurine product (OPA derivatised); type: biochemical, Paralichthys olivaceus; settings: 100 mM NaH2PO4, 10 μM PLP, 37 °C, 10 min, CSA 0–15 mM, pH not given for assay (enzyme buffer pH 7.4)
[2] = substrate: N[C@@H](CS)C(=O)O; test: HPLC of CSA product (OPA derivatised); type: biochemical, Oncorhynchus mykiss; settings: MES 62.5 mM (pH 6.1 given for tissue buffer), 0.3 mM ferrous sulfate, 62.5 μM bathocuproine disulfonate, O2 (air), 37 °C, fit at 0–4 mM, substrate inhibition above 4 mM
[3] = substrate: N[C@@H](CS)C(=O)O; test: HPLC of CSA product (OPA derivatised); type: biochemical, Paralichthys olivaceus; settings: MES 62.5 mM (pH 6.1 given for tissue buffer), 0.3 mM ferrous sulfate, 62.5 μM bathocuproine disulfonate, O2 (air), 37 °C, fit at 0–4 mM, substrate inhibition above 4 mM
[4] = substrate: N[C@@H](CS(=O)O)C(=O)O; test: HPLC of hypotaurine product (OPA derivatised); type: biochemical, Oncorhynchus mykiss; settings: 100 mM NaH2PO4, 10 μM PLP, 37 °C, 10 min, CSA 0–15 mM, pH not given for assay (enzyme buffer pH 7.4)

B1: Japanese flounder CSD (Paralichthys olivaceus) (protein)
chain: MNEPLLDNSEGQLFLTEAFKVIVEEVLCKGTDVKEKVCEWREPEELAALLDLELRENGEPQHQLLQRIRDVAKYSVKTSHPRFFNQQFAGVDYHSLAGRFLTESLNTNLFTYEVAPVFVLMETEVLRGLRQLVGWTEGDGIFCPGGSTSNMYAMNLARYRLFPEVKTQGLWGLPRLTVFTSQESHYSVKKGAGFLGLGTDNVILVKVDDGGRMIPSDLDEKITLTKSQGAVPFLVSCTAGTTVQGAFDPLDHIADVCEKHKLWLHVDAAWGGSVLFSKQHRHLMKGVDRANSVAWNPHKMLVAGLQCSALLLKDTTNLLKQCHCASATYLFQQDKFYDVNLDIGDKSLQCSRKVDCLKLWLMWKAVGSNGLAERVDKAFFHVRYLVEQMKKREGFHLLGQPEFVNVCFWYIPPSLRGKEGDSDYQDRLAKVAPVIKERMVKQGTMMVGYQPLANRVNFFRVIIFSPLISQRDIDFFLDEIERLGNDL
notes: full-length ORF (487 aa printed, ORF 1461 bp), N-terminal 6xHis tag, pET-28a, E. coli BL21(DE3), HisTrap and Superdex 200
- Km [1]: 3450 ± 380 µM
- kcat [1]: 1.52 ± 0.13 s⁻¹

B2: Japanese flounder CSD (Paralichthys olivaceus; F110Y/N108S) (protein)
chain: B1 chain with N108S, F110Y
notes: as for B1
- Km [1]: 1830 ± 170 µM
- kcat [1]: 6.26 ± 0.20 s⁻¹

B3: rainbow trout CDO (Oncorhynchus mykiss) (protein)
chain: MDQTELLKPETLDDLIKVLHKIFESDNINVEEVQNIMEAYDSNPQEWMKFAKFDQFRYTRNLVDEGNGKFNLMILCWGEGHGSSIHDHTDSHCFMKLLQGQLKETLFEWPDKKTCNMVQKSQRILQTNQCAYINDSFGLHRVENASHTECSASLHLYSPPFKTCQTFDQRTGHKNTVKMTFWSKFGERTPFETTVSQENN
notes: full-length ORF (200 aa printed, ORF 600 bp), N-terminal 6xHis tag, pET-28a, E. coli BL21(DE3), HisTrap and Superdex 200, iron supplemented; partly Cys-Tyr crosslinked
- Km [2]: 790 ± 90 µM
- kcat [2]: 16.72 ± 0.67 s⁻¹

B4: Japanese flounder CDO (Paralichthys olivaceus) (protein)
chain: MEHTELLKPETLDELIKTLHDIFDSDCINVEEVQGVMESYESKPQEWMKYAKFDQYRYTRNLVDEGNGKFNLMILCWGEGHGSSIHDHTDSHCFMKLLQGQLKETLFEWPDCQSHGDMVQRSQRILQENKVAYINDSLGLHRVENVSHTECAVSLHLYSPPFQACQTFDQRTGHRNTVKMTFWSKYGERTPFETTVSQENN
notes: full-length ORF (201 aa printed, ORF 603 bp), N-terminal 6xHis tag, pET-28a, E. coli BL21(DE3), HisTrap and Superdex 200, iron supplemented; partly Cys-Tyr crosslinked
- Km [3]: 1230 ± 150 µM
- kcat [3]: 29.36 ± 1.52 s⁻¹

B5: rainbow trout CSD (Oncorhynchus mykiss) (protein)
chain: MSHLPRFWNLGWSSFLDWWSNQSVVSEQGPSPLYGQQEMNEPLLDNSEGQLFLTEAFKVIVEEVLCKGTDVKEKVCEWREPEELAALLDLELRENGEPQHQLLQRIRDVAKYSVKTNHPRFFNQLFAGVDYHALTGRFLTEALNTSQYTYEVAPVFVLMEDEVLSKLRSLVGWAEGDGIFCPGGTMSNMYAMNVARYRAFPEVKLKGMWSLPRLAVFTSQQSHYSVMKAAAFQGIGTENVFKVKVDDRGCMIPEDLGETIELAKSQGAVPFFVHATSGTTVQGAFDPLEPIADICDRQGLWMHVDAAWGGSVLFSKEHKHLMRGVERADSVTWNPHKMMLTGLQCSAILLKDTTHLLKHCHSADAKYLFQQDKFYDTSLDTGDKSIQCGRKVDCLKLWLMWKAVGSKGLEERVDRAFTHTRYLVEEMKRREGFELIGKPLFVNVCFWFIPPSLRGKENSPDYNDRLSKVAPVIKERMMKQGTMMLGYQPQGGRVNFFRMIVISPQLSHQDMTFCLNEIERLGSDL
notes: full-length ORF (525 aa, ORF 1575 bp), N-terminal 6xHis tag, pET-28a, E. coli BL21(DE3), HisTrap and Superdex 200
- Km [4]: 2300 ± 240 µM
- kcat [4]: 4.72 ± 0.36 s⁻¹

B6: rainbow trout CSD (Oncorhynchus mykiss; S146N/Y148F) (protein)
chain: B5 chain with S146N, Y148F
notes: as for B5
- Km [4]: 2730 ± 270 µM
- kcat [4]: 1.86 ± 0.07 s⁻¹
